“And” between values parts separate entries of the source, which are not always exact repeats. Equal values may be shown once.
Columns and labels:
[1] = target: T1, α4β7 integrin expressed on transfected K562 cells (human, UniProt P13612 34-1032; P26010 20-798); experiment: flow cytometry on K562 α4β7 transfectants
T1 construct: How the α4β7 transfectants were made is not described; also called α4β7 transfectants

[2] = target: T2, human αEβ7 integrin expressed on cells (human, UniProt P38570 19-1179; P26010 20-798); experiment: cell adhesion assay, inhibition of K562 αEβ7 cells binding to immobilised E-cadherin-IgG
T2 construct: also called K562 transfectants that express αEβ7; L1.2 αEβ7 transfectants
T2 sequence (P38570 other isoform, or with tags, fused parts or gaps limits assumed, chain 1 of 2): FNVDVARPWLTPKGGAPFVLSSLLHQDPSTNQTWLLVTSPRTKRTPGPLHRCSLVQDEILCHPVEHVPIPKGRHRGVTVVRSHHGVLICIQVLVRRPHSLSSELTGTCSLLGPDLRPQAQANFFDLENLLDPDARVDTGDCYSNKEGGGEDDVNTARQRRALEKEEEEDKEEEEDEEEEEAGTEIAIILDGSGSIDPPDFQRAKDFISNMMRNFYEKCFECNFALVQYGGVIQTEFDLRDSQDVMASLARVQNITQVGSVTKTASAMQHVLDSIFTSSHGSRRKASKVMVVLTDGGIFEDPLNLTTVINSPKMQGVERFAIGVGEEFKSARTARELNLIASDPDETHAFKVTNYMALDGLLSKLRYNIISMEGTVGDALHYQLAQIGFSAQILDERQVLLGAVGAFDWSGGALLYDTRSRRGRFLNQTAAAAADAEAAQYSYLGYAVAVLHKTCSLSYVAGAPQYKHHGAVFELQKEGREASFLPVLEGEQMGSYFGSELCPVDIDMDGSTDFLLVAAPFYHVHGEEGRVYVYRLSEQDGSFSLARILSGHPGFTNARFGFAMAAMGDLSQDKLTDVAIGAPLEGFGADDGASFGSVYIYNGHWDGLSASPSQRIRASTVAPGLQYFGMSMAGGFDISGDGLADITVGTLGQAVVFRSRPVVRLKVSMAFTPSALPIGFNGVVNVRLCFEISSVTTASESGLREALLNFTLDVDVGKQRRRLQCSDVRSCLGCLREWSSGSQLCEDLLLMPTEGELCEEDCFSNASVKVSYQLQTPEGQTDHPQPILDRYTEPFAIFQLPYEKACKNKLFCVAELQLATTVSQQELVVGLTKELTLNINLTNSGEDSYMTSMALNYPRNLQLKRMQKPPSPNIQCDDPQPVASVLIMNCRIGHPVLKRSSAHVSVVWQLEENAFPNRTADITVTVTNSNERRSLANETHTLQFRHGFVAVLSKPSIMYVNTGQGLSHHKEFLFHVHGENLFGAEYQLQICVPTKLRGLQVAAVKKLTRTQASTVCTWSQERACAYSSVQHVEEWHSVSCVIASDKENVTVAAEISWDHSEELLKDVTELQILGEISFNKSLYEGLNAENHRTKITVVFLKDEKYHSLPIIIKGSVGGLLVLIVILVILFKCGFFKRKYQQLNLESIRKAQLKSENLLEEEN
T2 sequence (P26010 20-798 limits assumed, chain 2 of 2): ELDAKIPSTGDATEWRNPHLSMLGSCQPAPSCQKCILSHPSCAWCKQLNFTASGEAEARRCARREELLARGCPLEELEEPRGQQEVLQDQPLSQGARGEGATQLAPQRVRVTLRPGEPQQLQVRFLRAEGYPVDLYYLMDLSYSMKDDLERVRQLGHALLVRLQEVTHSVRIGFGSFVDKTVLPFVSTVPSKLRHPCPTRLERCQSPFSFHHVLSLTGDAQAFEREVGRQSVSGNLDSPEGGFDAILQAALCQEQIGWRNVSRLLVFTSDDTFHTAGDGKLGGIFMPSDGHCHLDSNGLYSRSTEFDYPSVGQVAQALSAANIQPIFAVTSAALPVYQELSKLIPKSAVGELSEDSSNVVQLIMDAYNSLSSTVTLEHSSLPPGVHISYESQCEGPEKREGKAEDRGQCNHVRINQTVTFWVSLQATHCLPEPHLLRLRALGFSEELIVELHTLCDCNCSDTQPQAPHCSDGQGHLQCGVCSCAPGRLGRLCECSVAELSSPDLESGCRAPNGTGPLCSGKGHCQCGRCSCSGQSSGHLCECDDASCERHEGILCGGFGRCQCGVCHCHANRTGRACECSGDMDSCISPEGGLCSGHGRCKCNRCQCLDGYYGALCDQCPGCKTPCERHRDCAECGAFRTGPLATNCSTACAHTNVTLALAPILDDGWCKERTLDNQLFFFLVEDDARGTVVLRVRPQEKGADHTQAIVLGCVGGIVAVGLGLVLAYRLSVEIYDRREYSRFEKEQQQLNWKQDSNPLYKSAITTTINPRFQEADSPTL
Protocol: ELISA plates were coated with 100 ng/well E-cadherin-IgG fusion protein in TBS (20 mM Tris, 140 mM NaCl, pH 9)/1 mM CaCl₂ overnight at 4° C. Plates were washed with wash buffer (HBSS/1 mM CaCl₂), and blocked with HBSS/1 mM CaCl₂/2% BSA for one hour at 37° C. After blocking, plates were washed twice with wash buffer. K562 transfectants at log growth stage were collected, washed once in HBSS/0.2% BSA/1 mM CaCl₂/1 mM MgCl₂, and resuspended to 4×10⁶ cells/mL in the same buffer. Cells were labeled with the fluorecent dye BCECF-AM (Molecular Probes, 4 μg/ml final concentration) for 15 minutes at […]. Labeled cells were washed twice, and resuspended in assay buffer (HBSS/0.2% BSA/1 mM CaCl₂/1 mM MgCl₂/1 mM MnCl₂) to 8×10⁵ cells/mL. 50 μl of the cell suspension was added to the E-cadherin-IgG coated well (4×10⁴ cells/well), and mixed with 50 μl assay buffer containing antibodies with desired concentration, or isotype-matched control antibody. The plate was then incubated at room temperature for 1 hour. The fluorescence content in each well was read on a Fluorescent Concentration Analyser (IDEXX, Westbrook, Me.) before and after three washes with HBSS/0.5 mM CaCl₂/0.5 mM MgCl₂/0.5 mM MnCl₂ using a Microplate Autowasher (Bio-Tek instruments, Winooski, Vt.). The Microplate Autowasher was programmed with parameters: 250 μl wash volume, 1× wash cycle, 0 soak time, and aspiration tube depth of 70. The bound cells (after washes) were expressed as a percentage of total input cells (before washes) in each well. Each sample was set up in triplicate wells.

[3] = target: mutant αEβ7 integrin, αE F298A, on transfected K562 cells (human, UniProt P38570 19-1179; P26010 20-798, F298A); experiment: flow cytometry on K562 cells expressing αEβ7 with αE F298A
Chain of mutant αEβ7 integrin, αE F298A, on transfected K562 cells (P38570 other isoform, or with tags, fused parts or gaps F298A | F298A F298A, chain 1 of 2): as the sequence (P38570 other isoform, or with tags, fused parts or gaps limits assumed, chain 1 of 2) above, with F298A counted along it
Chain of mutant αEβ7 integrin, αE F298A, on transfected K562 cells (P26010 20-798, chain 2 of 2): as the sequence (P26010 20-798 limits assumed, chain 2 of 2) above
Protocol: The fine specificity of mAb 5E4 was determined using a panel of transfected K562 cells that expressed various mutant αEβ7 integrins and detecting antibody binding to the transfectants by flow cytometry. The mutants proteins and methods used have been previously described in Higgins, J. M. G. et al., J. Biol. Chem. 275:25652-25664 (2000). The mutant αEβ7 integrins used contained the following mutations in the αE chain: R159S/R160S; ΔE163-E180; ΔE176; D190A; G193A; D199A; R202A/D205A; G230A/V231A; D240A; F298A; P311H/E345A/T346A; E325A; and Y354W. (See, Higgins, J. M. G. et al., J. Biol. Chem. 275:25652-25664 (2000).)
The fine specificity of mAb 5E4 was examined using transfected K562 cells that expressed αEβ7 integrin or mutated version of αEβ7 integrins, and antibody binding was detected by flow cytometry. Antibody binding was inhibited by deletion of amino acid residues 163-180 (ΔE163-E180; amino acid residues 163-180 of SEQ ID NO: 2), which are in the X domain of integrin αE chain, and was essentially abrogated by mutation of amino acid residue 298 (amino acid residue 298 of SEQ ID NO:2), which is in the I-domain, from Phenylalanine to Alanine (F298A).

T1 sequence (P13612 34-1032 R878Q limits assumed, chain 1 of 2): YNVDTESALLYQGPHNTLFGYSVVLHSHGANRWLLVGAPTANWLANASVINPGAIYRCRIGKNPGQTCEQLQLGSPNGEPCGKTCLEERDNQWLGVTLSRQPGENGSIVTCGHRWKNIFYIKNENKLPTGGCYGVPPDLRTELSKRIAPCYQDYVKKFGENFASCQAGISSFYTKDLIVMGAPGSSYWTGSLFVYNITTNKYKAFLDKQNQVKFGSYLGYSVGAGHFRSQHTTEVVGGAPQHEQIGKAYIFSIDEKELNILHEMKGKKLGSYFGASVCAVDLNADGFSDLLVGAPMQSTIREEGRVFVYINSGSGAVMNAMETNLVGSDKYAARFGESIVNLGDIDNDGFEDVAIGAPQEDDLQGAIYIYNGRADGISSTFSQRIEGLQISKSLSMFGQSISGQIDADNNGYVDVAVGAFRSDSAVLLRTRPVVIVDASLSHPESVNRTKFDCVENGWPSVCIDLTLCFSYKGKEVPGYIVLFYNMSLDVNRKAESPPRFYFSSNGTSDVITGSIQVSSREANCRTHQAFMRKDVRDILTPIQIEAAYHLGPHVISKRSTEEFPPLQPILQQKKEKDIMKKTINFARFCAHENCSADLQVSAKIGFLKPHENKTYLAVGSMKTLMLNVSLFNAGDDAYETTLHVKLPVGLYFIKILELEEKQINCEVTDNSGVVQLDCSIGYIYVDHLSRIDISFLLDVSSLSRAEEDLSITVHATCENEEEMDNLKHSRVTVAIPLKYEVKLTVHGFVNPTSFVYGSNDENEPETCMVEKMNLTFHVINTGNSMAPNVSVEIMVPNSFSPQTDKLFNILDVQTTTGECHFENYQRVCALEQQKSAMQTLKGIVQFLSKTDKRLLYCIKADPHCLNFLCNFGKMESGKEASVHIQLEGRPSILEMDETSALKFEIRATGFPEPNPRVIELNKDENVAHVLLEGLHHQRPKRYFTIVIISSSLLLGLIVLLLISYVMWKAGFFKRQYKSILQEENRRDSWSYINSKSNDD
T1 sequence (P26010 20-798 limits assumed, chain 2 of 2): as the sequence (P26010 20-798 limits assumed, chain 2 of 2) above

Binder | binding result [1] | IC50 [2] | binding result [3]
mAb 5E4 (IgG1) (antibody, V domains shown, Human antibody; also called converted 5E4 (IgG1); antibody produced by CHO 5G4 A1.2C12) VH: EVQLVESGGGLVQPGGSLRLSCAASGFTFSNFWMSWVRQAPGKGLEWMANIKQDGSEKYYVDSVKGRFTISRDNAKSSLFLQMNSLRVDDTAVYFCAGDYYDSGSFYWGQGTLVTVSS VL: EIVLTQSPATLSLSPGERATLSCRASQSVRSNLAWYQQKPGQAPRLLIYDASNRAIGIPARFSGSGSGTDFTLTISSLEPEDFVVYYCQQRSNWPPWTFGQGTKVEIK | no binding | ~1.29 µg/mL and ~8.5 nM | –
mAb 5E4 (antibody, V domains shown, The variable domains are the same as in m3 and m4) VH: EVQLVESGGGLVQPGGSLRLSCAASGFTFSNFWMSWVRQAPGKGLEWMANIKQDGSEKYYVDSVKGRFTISRDNAKSSLFLQMNSLRVDDTAVYFCAGDYYDSGSFYWGQGTLVTVSS VL: EIVLTQSPATLSLSPGERATLSCRASQSVRSNLAWYQQKPGQAPRLLIYDASNRAIGIPARFSGSGSGTDFTLTISSLEPEDFVVYYCQQRSNWPPWTFGQGTKVEIK | – | – | no binding
mAb 8D5 (IgG1) (antibody, V domains shown, The variable domains are the same either way) VH: QVQLQESGPGLVKPSETLSLTCTVSGGSVSSYYWSWIRQPPGKGLEWIGHIYYSGNTNYNPSLKSRVTISVDTSKNQFSLKLSSVTAADTAVYFCARDRWNYYDSSPGYYYYYGMDVWGQGTTVTVSS VL: DIQMTQSPSSLSASVGDRVTITCRASQGIRNDLGWYQQKPGKAPKRLIFAASHLQSGVPSRFSGSGSGTEFTLTISSLQPEDFATYYCQQHNSSPFTFGPGTRVDIK | – | ~0.715 µg/mL and ~4.7 nM | –
mAb 8D5 (antibody, V domains shown, also called 8D5 IgG2; human mAb 8D5 (IgG2)) VH: QVQLQESGPGLVKPSETLSLTCTVSGGSVSSYYWSWIRQPPGKGLEWIGHIYYSGNTNYNPSLKSRVTISVDTSKNQFSLKLSSVTAADTAVYFCARDRWNYYDSSPGYYYYYGMDVWGQGTTVTVSS VL: DIQMTQSPSSLSASVGDRVTITCRASQGIRNDLGWYQQKPGKAPKRLIFAASHLQSGVPSRFSGSGSGTEFTLTISSLQPEDFATYYCQQHNSSPFTFGPGTRVDIK | no binding | – | –
mAb 3G6 (IgG1) (antibody, V domains shown, Human antibody; also called converted 3G6 (IgG1); antibody produced by CHO 3G6 C1.2D6) VH: EVQLVQSGAEVKKPGESLKISCKGSGYSFTSYWIGWVRQMPGKGLEWMGIIYPGDSGPRYSPSFQGQVTISADKSISTAYLQWSSLKASDTAMYYCARLSYTSTWYPYYFDYWGQGTLVTVSS VL: not shown | no binding | ~2.04 µg/mL and ~13.4 nM | –
